Measured values as given in the DeepSol protein solubility set.

Assay: soluble on expression in E. coli; label from the status in PepcDB or PDB records

Sequence	soluble on expression in E. coli
MGSDKIHHHHHHMMTYRDAWFELALLTNGRSFPRHTHDEFVISANLSGMETVWLDGETFVATNDMVTTYNPNQLQGSDNAFDRWQCASLYVHPQAFEHYFHQTFLFSQGWNPSAQLASELKQLVTSDLDDSARQERIILLLAGLMEGQHRMLPQSQVKEAERITRIKEGLLNDLSEVPTLDQLAQQESLSVAHLVRSFNQAVGLPPLAWLMQRRMCKARELLRQGTAISQVAGDVGFADQAHFTKAFNRYNAMTPGQFRRINF	not soluble
MGSDKIHHHHHHMNAPRFAAPARRTKKLPPLRVGIGGPVGSGKTTLLEMLCKGMRERYDLVAITNDIYTKEDQRLLTIAGALPEARIMGVETGGCPHTAIREDASINLEAVERMLARFPDADIVFIESGGDNLAATFSPELSDLTIYVIDVAGGEKIPRKGGPGITKSDLLVINKTDLAPLVGANLEVMASDTRKMRGERPYVMCNLKALDGVADVIAFIENKGLLTV	not soluble
MGSDKIHHHHHHMNAQIKIINTANGYMALCQDTPEDITPAWFSVDFWREKSAVVGSSKGRYTTWFVAFEHSHWVLRHYWRGGMMEKFSKDAYFYTGLENTRAMGELRLLDALYREQFAVPKPIAANIVRDGLFYRADIIIERVDGAEDLVAKLTKGTMTQAQWHALGATIAQFHRRGVYHADLNAKNILWQPQQTDSAQERFYLIDFDRGELKTPNAKWQKANLDRLLRSFNKEQGKQPTLAFTPANWAALLEGYHAVVPKV	not soluble
MGSDKIHHHHHHMNDLLPFLAQVSLFKGIETEELPKMLNRLNARKVSYKKNDVILREGQSVHSVGIMLSGKVKVVKEDFKGNTNVMTFIEPGAMFAEAYACTQTANLPFTVLSVMETKILWIDYRKIISTCTSACESHEKLIENMMKALASKSILLNQKIEHISKRTTQEKLLTYLFDQSKKSGSNEFEIPFSRQELADYLCVDRSAMSNELCKLQREGVLNFHLNHFKLSKSSSEAQL	not soluble
MGSDKIHHHHHHMNEQFERLMVRVESLMARIESVLPQPLSAPDWTASVAYRYRKRGSGHGSLEPVRHLGAMRLTDLKEIDGQKDRIRRNTEQFVSGKPANNVLLTGSRGTGKSSLIKACLNEYSARGLRLIEVDKADLTDLPDIVDVVSGLPEKFIVFCDDLSFEEGEPGYKALKSILDGSIAAATPNVLIYATSNRRHLLPEYMMENLTYTHTEDGEVHPGEVVEEKISLSERFGLWVSFYPFSQDEYLTIVAQWLSSFGVNAEAISAARPASLVWALERGSRSGRVAYQFARDYAGQHAGTVQ	not soluble
MGSDKIHHHHHHMNFLKKEPFKIFSMIYLLLDTITNRAGTERAVINLANNLHANGHRVSLVSVCTKEGEPSFQVEKGIEVHHLGIRLYGNALARKTVYFKAYRRIKALYKKREPVLLIGTNIFINTILSQISNRGRIFTIGCEHISYDIARPITKRIRGFLYSGLDAVVALTKRDQQSFEAILRGRSKAYVIPNQVSFTTVQRDATTHKQMLAIGRLTYQKGFEFMIEDASRVLRERPDWKLIIVGDGENESMLRKEIASRNMESQIEIHPSTPEIRKYYESSAIYLMTSRFEGLPMVLLEAEAYALPIISYDCPTGPRELIENGRNGFLVPMEAHEDFADKLRLLMDDETLRKKMGQESELMVKSYSPANIYECWKKLFVEIGYMN	not soluble
MGSDKIHHHHHHMNFPIDEKLIREKQNELHIKDLGMASIRDLVALVTNLEKATGTKFCRMEMGVPGLPAPQIGIETEIQKLREGVASIYPNLDGLPELKQEASRFAKLFVNIDIPARACVPTVGSMQGCFVSFLVANRTHKNREYGTLFIDPGFNLNKLQCRILGQKFESFDLFEYRGEKLREKLESYLQTGQFCSIIYSNPNNPTWQCMTDEELRIIGELATKHDVIVIEDLAYFGMDFRKDYSHPGEPLYQPSVANYTDNYILALSSSKAFSYAGQRIGVLMISGKLYEREYPDLEESFGRLRFGEALSSSALYALSSGATHSAQWGMAAMLKACNDGEYNFRDSVIEYGRKARIMKKMFLDNGFNIVYDKDGNEPLADGFYFTVGYKGMDSSKLIEKFVRYGMCAITLKTTGSKRNEAMRICTSLLPESQFPDLEKRLQMLNAEG	not soluble
MGSDKIHHHHHHMNIEKTRFCINRKIAPGLSIEAFFRLVKRLEFNKVELRNDMPSGSVTDDLNYNQVRNLAEKYGLEIVTINAVYPFNQLTEEVVKKTEGLLRDAQGVGARALVLCPLNDGTIVPPEVTVEAIKRLSDLFARYDIQGLVEPLGFRVSSLRSAVWAQQLIREAGSPFKVLLDTFHHHLYEEAEKEFASRIDISAIGLVHLSGVEDTRPTEALADEQRIMLSEKDVMQNYQQVQRLENMGYRGIYAFEPFSSQLASWSEAEIEEQINRSVSLLLQ	not soluble
MGSDKIHHHHHHMNILFVSDLGSLGGGETSLFNLINEFASDNKKYNINNFLMCKTEGKLVDKCRGINVPCKVFDFKAAFKSFKFREISKAIKVIKEFLYSNNIDVIQCNEWSSAVLFSIISKVSSKNCKIIWICHGQWYKFNLIKRVLVNSLINRIISVSESVQNNLIINKLNKRKLLKQNLGIDLDRFRLGNGDKLREELHIQKEDKVLGVIARFQPIKGQKLVIEAARDIVEAGYKNYKFLLVGDSIFNNPKDSMYKNEVIEMIKEYKLQKNVLILGERNDVPDILALLDALIVPSINESFGMVVVEAFAAGCPVISTPCDGPMEIIKNGYSGVIINERNSENLKDAITDLMKEETDLEMMKINSMKESKKYDISNIAQFYCKQYALLCK	not soluble
MGSDKIHHHHHHMNINISGKRVLVTASTEGIGRGIAEAFLREGCNVVISSRNKDKIEKAILEMRKIGPSVWGFPADLTDFKSLEELVGYALKIMNGIDILVVNSGNPPKEPSYFFENTMEDWEYATKLYLLSAIKLTNLVYQYMKAQRWGRIFFLSSWTIKEPQRIFSLADITRAPLIQMAKLLSKELGEYNVNVNVILMGSFETEGAKRSLKKYAEKVGQPLDVIWKREVISQIPIGRTGDIKNELGSLLVFLSSDYAGYINGTSILIDGGMSRAI	not soluble
MGSDKIHHHHHHMNINSETKYCQTCGIPLDIDYTNLKADQNEEYCDYCLKNGVKLYDFSMDYLIYLWGLFPEEYYKEVGIRHTSSELREIMSRRLPEIKRWKQKINTAHIQYELVIRVQEYINCHLFDDLDSEKLSQIVCISKYHFRRLFKAVCGDSLGNYIQRLRLEYIAFKLISTNVSVSEILSQINYQNKHTLSRAFKNYFNCSIPEFRKRHSNACSEGKNPIQIEPSIERVPHTRIAYLKLERTHHVSHSFSVLWKQVLQFSESYGLLSKGCKYVSLTLDYPFITLEEQSRFMVGVTLPQSFKIPKGFGVYEVPAGEYAIFRFKGLYHELNRVYRYIYLDWLPANDYSLREPFTFETYINTPEKTPVSELITDIYIPVKKKEI	not soluble
MGSDKIHHHHHHMNIQTFMLPSQKVSPELEILHADLQTEGQHPPILFLHGYTSGAWQFAQHWMPTLQANGWQSFALNLRGHGGSAGRETVTTARFLDYADDVARAIAYVRGQTDQTPILIGHSLGSVLARHYAAEHSVPGLGLLITIGMQGFMGWMMKRYPLQGMAGMMTGRPSAMFAKFGPQYDVMYAGHNKETVRGNVERLMAQPDSDKVFMDLSKLKLGLPAKSTPTFVMAGTRDPIASVESVEALGRSYAVEPVMLQDKAHDIVAGPDWNDGLQHLQAWLETAKF	not soluble
MGSDKIHHHHHHMNIRILGCHGSQVPGCNTTSFLVEENVLIDAGSITSTLTAEEQVKVDYIFVTHAHLDHVKEMMFMVDNLWYLQKSNPLTIVSIEPVIHALKTHLFNGLIWPDFSSLPNAENPVLRYEILEVGGKRNIGSFAVTAISVNHTVETVSYVIETGQGSMIFIGDTGPTEEIWKVANSIEDLKAIFVETSLPDEMNHIAEMTGHLTPAMLMKELFKLNNKNLDIYLYHMKDFYSKLITRQVAAMNQNRLHILEDGQTVRI	not soluble
MGSDKIHHHHHHMNITIVGAGATGGYFGARLAASGLNVTFLVREKRAAQLREKGLVIKSVVEDLTLEAPQIAINAEDIPACDLVLLGLKNYQLAASLPQLKVLVNRGAKILPFLNGVEHFEILAKELGQENVLGGVCKIISTLDSEGTIHHTSKVHQIIFGELEPSGKEFCLRLEQAMAKANFKVKYTENILNEIWSKYAFITVFSGVTSAGDLTTDQICAHEATVKVYRRSLEEMKSLADAYGAALSEDFVEQNVEGLPKYAKGSTSSMHQDMRKGLLLEVESLQGAAIRLAGRKNMELPTIETLYGLIKPYEMGSIG	not soluble
MGSDKIHHHHHHMNITSKLNQIIQECLVNRDSDLFIMPRFDKYQLLYRDAGGYRKSALIDRDEAEQIMMYIKYRADMGISERRRPQSGAMTWLNRQGELVNLRISTVGDFLDRPSMVIRFIYVLKQDEHILDSESMEKIQLATKLRGLMVFSGPMGSGKTTLIYEVARKLSETKMVMSIEDPVEIREHNFLQLQVNEKSGMSYQELLKNGLRNRPDVFIIGEIRDGKTAEIAIQAALSGHLVLTTVHSKSTQGVWNRIVELGVREEHLKEALTAVIYQRMIPAKVGDLKIMAEIKSFHPALKGTKKKWRERLEEWKESGQITKEVFEDFQYG	not soluble
MGSDKIHHHHHHMNKNQYPKWEELPELDLYLDQVLLYVNQLINPKTITNDKLLTASMINNYVKHNYISKPIKKKYNRRQVARLIVITAFKQVFAIQEISQTLELLTADNHSEEAYNGFAACMNKEEVHDLPPVVISACQTLNLYQETQKLVLELGGKNKNA	not soluble
MGSDKIHHHHHHMNKPCIISVAITGSLPRKKDNPAVPITVSEQVESTQAAFEAGATLVHLHVRNDDETPTSNPDRFALVLEGIRKHAPGMITQVSTGGRSGAGNERGAMLSLRPDMASLATGSVNFPTRVYDNPPELVDWLAAEMKTYGIKPEVEAFDLSMIFQAAAMQAAGAIVGPLHIQFVMGIKNAMPVDREVLEFYVQTLKRLSPDATWTGAGIGRHQLTMARWSLELGGHCRTGLEDNVRLDKNTLAPSNAALVRQVAELCEEYGRPVATAAQAREIMSLG	not soluble
MGSDKIHHHHHHMNKSIFDDINSTNIGSYWTTLSQQMDPYLWETLMPNSKQIASDFVFYRGMSNAPKPLAPSAFGVPAIMRKRSGFDRVSDHTRYFKEGYYIDEAIRQQLLRVGANATQAEKDMINNHIFQDSMELLKGAQLTREIMRNQIIQTGKINVIGNGQTITADYQMKASHRVVNDKAWGTTGSTPFEDIQKARDLVGDDSDQVITRAVMNKATFNALMSDTNVKSTMLYDNGKLANVTIPQSELLNFLVTNYGLTVQIYDKRYMDIDGTKKKWIPDGRVIFLPDGELGKTIMSTTPEEADLAAASDVDMTLVDNGVAITTMLDSDPVNKKINVSQEVMPSFPQIDGIYILDAFAKTGTDPLATTPTAPASTTTTTDPKA	not soluble
MGSDKIHHHHHHMNLATPSQMTAASIETFDATSCAAFSACYPETPHKLVHRLRDHPLLQLDALAALGEELPAHSVEYNRADLPIGLNGGKAPPNGIGIGETIRNIASTGSWAALKNVEQVPAYAALLGELLEGLRPTIEARTGAMLKPQGFVFVTSPDGVTPYHFDPEHNILLQLMGSKVMTMFPAGDSRFAPDETHETYHTGGGRELFWRDELLGHGRQWPLSPGEALYVPVMSPHFVTNGPSPSVSLSITWRSEWSFAEADARAFNGLLRSMGLKPGAPRRWPASNRAKAMCWRLYGKVRGLR	not soluble
